# From article PMC5626764 (2017)
# B1: Wildtype NiV G ectodomain (Nipah virus attachment glycoprotein G, residues 71-602, N-terminal His6-tag) (domain or fragment)
# chain: QNYTRSTDNQAVIKDALQGIQQQIKGLADKIGTEIGPKVSLIDTSSTITIPANIGLLGSKISQSTASINENVNEKCKFTLPPLKIHECNISCPNPLPFREYRPQTEGVSNLVGLPNNICLQKTSNQILKPKLISYTLPVVGQSGTCITDPLLAMDEGYFAYSHLERIGSCSRGVSKQRIIGVGEVLDRGDEVPSLFMTNVWTPPNPNTVYHCSAVYNNEFYYVLCAVSTVGDPILNSTYWSGSLMMTRLAVKPKSNGGGYNQHQLALRSIEKGRYDKVMPYGPSGIKQGDTLYFPAVGFLVRTEFKYNDSNCPITKCQYSKPENCRLSMGIRPNSHYILRSGLLKYNLSDGENPKVVFIEISDQRLSIGSPSKIYDSLGQPVFYQASFSWDTMIKFGDVLTVNPLVVNWRNNTVISRPGQSQCPRFNTCPEICWEGVYNDAFLIDRINWISAGVFLDSNQTAENPVFTVFKDNEILYRAQLASEDTNAQKTITNCFLLKNKIWCISLVEIYDTGDNVIRPKLFAVKIPEQCT
# Molecular target: T1, ephrinB2-Fc (human ephrinB2 residues 1-229, Factor XA cleavage site, human IgG1 residues 100-330) (human, UniProt P52799 28-229)
# T1 chain: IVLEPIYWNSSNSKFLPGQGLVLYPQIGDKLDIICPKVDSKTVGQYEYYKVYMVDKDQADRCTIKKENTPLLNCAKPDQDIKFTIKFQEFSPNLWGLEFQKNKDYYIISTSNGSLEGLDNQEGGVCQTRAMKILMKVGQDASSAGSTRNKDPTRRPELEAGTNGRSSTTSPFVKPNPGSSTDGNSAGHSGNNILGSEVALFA
# Assay: ELISA
binder,measurement,value
B1,Ki,0.038 nM
